Measured values reported in publication PMC9314330, “Structural basis of human TREX1 DNA degradation and autoimmune disease” (Nature Communications, 2022).
Positions count from the first letter of the chain named. Numbers in names are those of the source.

Tests used:
[1] = target: the molecule itself; test: crystal structure; WT hTREX1 with 22-nt Y-form dsDNA (1:1.3 protein:DNA), 0.05 M Li2SO4, 0.1 M Bis-Tris pH 6.5, 25% PEG-3350, 18 °C; spacegroup P 1 21 1, 3 copies of hTREX1-DNA dimer in the asymmetric unit
[2] = target: the molecule itself; test: crystal structure; apo hTREX1 chimeras, hanging-drop vapor diffusion at 18 °C; spacegroup P 41 21 2, one hTREX1 dimer in the asymmetric unit
hTREX1 K160R = target: T1, hTREX1 K160R (Homo sapiens, UniProt Q9NSU2 1-242, K160R); test: thermal shift (thermofluor); 10 uM protein; 10 or 20 uM DNA; higher than WT; Tm about 63.2 C at 20 uM DNA (mean of source data, column order inferred); EMSA: 20 mM HEPES-NaOH pH 7.8, 75 mM KCl, 10 mM EDTA, 1 mM DTT, 4 C 30 min, 2% agarose; thermofluor: 20 mM Tris-HCl pH 7.5, 75 mM KCl, 1 mM TCEP, DNA preincubated at 4 C 30 min, 20-95 C ramp; crystals: 20 mM HEPES-KOH pH 7.5, 78 mM KCl, 1 mM TCEP over 0.05 M Li2SO4, …; conditions: protein: recombinant; tags: none (His-SUMO2 removed by SENP2); chain copies: 2; blunt; self-complementary strand
T1 sequence: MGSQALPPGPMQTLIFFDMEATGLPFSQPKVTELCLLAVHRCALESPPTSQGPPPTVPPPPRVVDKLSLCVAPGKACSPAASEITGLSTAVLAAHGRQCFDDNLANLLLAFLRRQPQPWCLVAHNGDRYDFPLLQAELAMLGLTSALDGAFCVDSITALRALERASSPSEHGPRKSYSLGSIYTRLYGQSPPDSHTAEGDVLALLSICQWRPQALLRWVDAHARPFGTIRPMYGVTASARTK

B1: human TREX1 (wildtype), N-terminal enzymatic domain, amino acids 1-242 (enzyme, UniProt Q9NSU2-3 1-242, looked up)
chain: T1 sequence with R160K
notes: human TREX1, C-terminal truncation, amino acids 1-242 of the 314-residue protein (catalytic domain 1-242, C-terminus 243-314); numbers count on: the 314-residue form; Crystallised with 22-nt Y-form dsDNA (2:2 complex); also called hTREX1; WT hTREX1; source: E. coli BL21-RIL DE3, purified (Ni-NTA, Heparin HP, Superdex S75)
B1: binds [1].

B2: hTREX1 Chi 5.1 (A5T/P8H/P10H), amino acids 1-242 (enzyme, human, UniProt Q9NSU2-3 1-242, looked up)
chain: T1 sequence with A5T, P8H, P10H, R160K
notes: human TREX1, amino acids 1-242 of the 314-residue protein, with three mouse-like mutations; numbers count on: the 314-residue form; also called human TREX1 Chi 5.1; source: E. coli BL21-RIL DE3, purified (Ni-NTA, Heparin HP, Superdex S75)
B2: binds [2].

B3: 30-bp dsDNA (dsDNA)
DNA 1: GCTCGAGTCATGACGCGTCATGACTCGAGC
DNA 2: B3 DNA 1
B3: binds (hTREX1 K160R).
